Laboratory results published in patent publication US20150087577A1 (POLYPHOR, published 2015).
*1 amine or outer side, *2 acyl side, *3 side chain or, on linkers, in order; H or OH if unused. Bridges are numbered along the chain shown (N, C = ends). [ ]: non-standard residue; d: D form. (Pip)G = N-{3-[1'-(4'-methylpiperazinyl)]-propyl}-glycine, CN1CCN(CCCN(CC(=O)[*:2])[*:1])CC1; IsOrn = L-(N',N'-diisobutyl)-ornithine, CC(C)CN(CCC[C@H](N[*:1])C(=O)[*:2])CC(C)C; N(3-imidazol-1-ylpropyl)Gly = O=C(O)CNCCCn1ccnc1; Phe(4-F) = N[C@@H](Cc1ccc(F)cc1)C(=O)O; 2Nal = N[C@@H](Cc1ccc2ccccc2c1)C(=O)O; 4Pal = N[C@@H](Cc1ccncc1)C(=O)O; Cit = NC(=O)NCCC[C@H](N)C(=O)O; NMeK = CN[C@@H](CCCCN)C(=O)O; Orn = NCCC[C@H](N)C(=O)O; Sar = CNCC(=O)O

B1: Example 117 (peptide)
peptide: cyclo(YR[Cit]CRG[dP]R[Orn]WCY[Cit]K[dP]P)
modifications: disulfide 4-11
SMILES: N=C(N)NCCC[C@@H]1NC(=O)[C@@H]2CSSC[C@H](NC(=O)[C@H](Cc3c[nH]c4ccccc34)NC(=O)[C@H](CCCN)NC(=O)[C@H](CCCNC(=N)N)NC(=O)[C@H]3CCCN3C(=O)CNC1=O)C(=O)N[C@@H](Cc1ccc(O)cc1)C(=O)N[C@@H](CCCNC(N)=O)C(=O)N[C@@H](CCCCN)C(=O)N1CCC[C@@H]1C(=O)N1CCC[C@H]1C(=O)N[C@@H](Cc1ccc(O)cc1)C(=O)N[C@@H](CCCNC(=N)N)C(=O)N[C@@H](CCCNC(N)=O)C(=O)N2
B2: Example 23 (peptide)
peptide: cyclo(YR[Cit]FRF[dP]RR[2Nal]VY[Cit]K[dP]P)
SMILES: CC(C)[C@@H]1NC(=O)[C@H](Cc2ccc3ccccc3c2)NC(=O)[C@H](CCCNC(=N)N)NC(=O)[C@H](CCCNC(=N)N)NC(=O)[C@H]2CCCN2C(=O)[C@H](Cc2ccccc2)NC(=O)[C@H](CCCNC(=N)N)NC(=O)[C@H](Cc2ccccc2)NC(=O)[C@H](CCCNC(N)=O)NC(=O)[C@H](CCCNC(=N)N)NC(=O)[C@H](Cc2ccc(O)cc2)NC(=O)[C@@H]2CCCN2C(=O)[C@H]2CCCN2C(=O)[C@H](CCCCN)NC(=O)[C@H](CCCNC(N)=O)NC(=O)[C@H](Cc2ccc(O)cc2)NC1=O
B3: Example 120 (peptide)
peptide: cyclo(YHTCRG[dP]RHWCYQK[dP]P)
modifications: disulfide 4-11
SMILES: C[C@@H](O)[C@@H]1NC(=O)[C@H](Cc2c[nH]cn2)NC(=O)[C@H](Cc2ccc(O)cc2)NC(=O)[C@@H]2CCCN2C(=O)[C@H]2CCCN2C(=O)[C@H](CCCCN)NC(=O)[C@H](CCC(N)=O)NC(=O)[C@H](Cc2ccc(O)cc2)NC(=O)[C@@H]2CSSC[C@H](NC1=O)C(=O)N[C@@H](CCCNC(=N)N)C(=O)NCC(=O)N1CCC[C@@H]1C(=O)N[C@@H](CCCNC(=N)N)C(=O)N[C@@H](Cc1c[nH]cn1)C(=O)N[C@@H](Cc1c[nH]c3ccccc13)C(=O)N2
B4: Example 127 (peptide)
peptide: cyclo(YR[Cit]CRG[dP]RR[2Nal]CY[Cit][NMeK][dP]P)
modifications: disulfide 4-11
SMILES: CN1C(=O)[C@H](CCCNC(N)=O)NC(=O)[C@H](Cc2ccc(O)cc2)NC(=O)[C@@H]2CSSC[C@H](NC(=O)[C@H](CCCNC(N)=O)NC(=O)[C@H](CCCNC(=N)N)NC(=O)[C@H](Cc3ccc(O)cc3)NC(=O)[C@@H]3CCCN3C(=O)[C@H]3CCCN3C(=O)[C@@H]1CCCCN)C(=O)N[C@@H](CCCNC(=N)N)C(=O)NCC(=O)N1CCC[C@@H]1C(=O)N[C@@H](CCCNC(=N)N)C(=O)N[C@@H](CCCNC(=N)N)C(=O)N[C@@H](Cc1ccc3ccccc3c1)C(=O)N2
B5: Example 125 (peptide)
peptide: cyclo(YR[Cit]CRG[dP][N(3-imidazol-1-ylpropyl)Gly]R[2Nal]CY[Cit]K[dP]P)
modifications: disulfide 4-11
SMILES: N=C(N)NCCC[C@@H]1NC(=O)CN(CCCn2ccnc2)C(=O)[C@H]2CCCN2C(=O)CNC(=O)[C@H](CCCNC(=N)N)NC(=O)[C@@H]2CSSC[C@H](NC(=O)[C@H](Cc3ccc4ccccc4c3)NC1=O)C(=O)N[C@@H](Cc1ccc(O)cc1)C(=O)N[C@@H](CCCNC(N)=O)C(=O)N[C@@H](CCCCN)C(=O)N1CCC[C@@H]1C(=O)N1CCC[C@H]1C(=O)N[C@@H](Cc1ccc(O)cc1)C(=O)N[C@@H](CCCNC(=N)N)C(=O)N[C@@H](CCCNC(N)=O)C(=O)N2
B6: Example 123 (peptide)
peptide: cyclo(YR[Cit]CRG[dP]RRWCY[Cit]K[dP]P)
modifications: disulfide 4-11
SMILES: N=C(N)NCCC[C@@H]1NC(=O)[C@@H]2CSSC[C@H](NC(=O)[C@H](Cc3c[nH]c4ccccc34)NC(=O)[C@H](CCCNC(=N)N)NC(=O)[C@H](CCCNC(=N)N)NC(=O)[C@H]3CCCN3C(=O)CNC1=O)C(=O)N[C@@H](Cc1ccc(O)cc1)C(=O)N[C@@H](CCCNC(N)=O)C(=O)N[C@@H](CCCCN)C(=O)N1CCC[C@@H]1C(=O)N1CCC[C@H]1C(=O)N[C@@H](Cc1ccc(O)cc1)C(=O)N[C@@H](CCCNC(=N)N)C(=O)N[C@@H](CCCNC(N)=O)C(=O)N2
B7: Example 119 (peptide)
peptide: cyclo(Y[4Pal]TCRG[dP]RRWCYQK[dP]P)
modifications: disulfide 4-11
SMILES: C[C@@H](O)[C@@H]1NC(=O)[C@H](Cc2ccncc2)NC(=O)[C@H](Cc2ccc(O)cc2)NC(=O)[C@@H]2CCCN2C(=O)[C@H]2CCCN2C(=O)[C@H](CCCCN)NC(=O)[C@H](CCC(N)=O)NC(=O)[C@H](Cc2ccc(O)cc2)NC(=O)[C@@H]2CSSC[C@H](NC1=O)C(=O)N[C@@H](CCCNC(=N)N)C(=O)NCC(=O)N1CCC[C@@H]1C(=O)N[C@@H](CCCNC(=N)N)C(=O)N[C@@H](CCCNC(=N)N)C(=O)N[C@@H](Cc1c[nH]c3ccccc13)C(=O)N2
B8: Example 118 (peptide)
peptide: cyclo(YRTCRG[dP][4Pal]RWCYQK[dP]P)
modifications: disulfide 4-11
SMILES: C[C@@H](O)[C@@H]1NC(=O)[C@H](CCCNC(=N)N)NC(=O)[C@H](Cc2ccc(O)cc2)NC(=O)[C@@H]2CCCN2C(=O)[C@H]2CCCN2C(=O)[C@H](CCCCN)NC(=O)[C@H](CCC(N)=O)NC(=O)[C@H](Cc2ccc(O)cc2)NC(=O)[C@@H]2CSSC[C@H](NC1=O)C(=O)N[C@@H](CCCNC(=N)N)C(=O)NCC(=O)N1CCC[C@@H]1C(=O)N[C@@H](Cc1ccncc1)C(=O)N[C@@H](CCCNC(=N)N)C(=O)N[C@@H](Cc1c[nH]c3ccccc13)C(=O)N2
B9: Example 128 (peptide)
peptide: cyclo(YR[Cit]CRG[dP]RRWCY[Cit]K[dP]P)
modifications: disulfide 4-11
SMILES: N=C(N)NCCC[C@@H]1NC(=O)[C@@H]2CSSC[C@H](NC(=O)[C@H](Cc3c[nH]c4ccccc34)NC(=O)[C@H](CCCNC(=N)N)NC(=O)[C@H](CCCNC(=N)N)NC(=O)[C@H]3CCCN3C(=O)CNC1=O)C(=O)N[C@@H](Cc1ccc(O)cc1)C(=O)N[C@@H](CCCNC(N)=O)C(=O)N[C@@H](CCCCN)C(=O)N1CCC[C@@H]1C(=O)N1CCC[C@H]1C(=O)N[C@@H](Cc1ccc(O)cc1)C(=O)N[C@@H](CCCNC(=N)N)C(=O)N[C@@H](CCCNC(N)=O)C(=O)N2
B10: Example 129 (peptide)
peptide: cyclo(YR[Cit]CRG[dP]RR[2Nal]CY[Sar]K[dP]P)
modifications: disulfide 4-11
SMILES: CN1CC(=O)N[C@@H](CCCCN)C(=O)N2CCC[C@@H]2C(=O)N2CCC[C@H]2C(=O)N[C@@H](Cc2ccc(O)cc2)C(=O)N[C@@H](CCCNC(=N)N)C(=O)N[C@@H](CCCNC(N)=O)C(=O)N[C@H]2CSSC[C@H](NC(=O)[C@H](Cc3ccc4ccccc4c3)NC(=O)[C@H](CCCNC(=N)N)NC(=O)[C@H](CCCNC(=N)N)NC(=O)[C@H]3CCCN3C(=O)CNC(=O)[C@H](CCCNC(=N)N)NC2=O)C(=O)N[C@@H](Cc2ccc(O)cc2)C1=O
B11: Example 122 (peptide)
peptide: cyclo(YR[Cit]CRG[dP][Phe(4-F)]RWCY[Cit]K[dP]P)
modifications: disulfide 4-11
SMILES: N=C(N)NCCC[C@@H]1NC(=O)[C@@H]2CSSC[C@H](NC(=O)[C@H](Cc3c[nH]c4ccccc34)NC(=O)[C@H](CCCNC(=N)N)NC(=O)[C@H](Cc3ccc(F)cc3)NC(=O)[C@H]3CCCN3C(=O)CNC1=O)C(=O)N[C@@H](Cc1ccc(O)cc1)C(=O)N[C@@H](CCCNC(N)=O)C(=O)N[C@@H](CCCCN)C(=O)N1CCC[C@@H]1C(=O)N1CCC[C@H]1C(=O)N[C@@H](Cc1ccc(O)cc1)C(=O)N[C@@H](CCCNC(=N)N)C(=O)N[C@@H](CCCNC(N)=O)C(=O)N2
B12: Example 124 (peptide)
peptide: cyclo(YR[Cit]CRG[dP][IsOrn]R[2Nal]CY[Cit]K[dP]P)
modifications: disulfide 4-11
SMILES: CC(C)CN(CCC[C@@H]1NC(=O)[C@H]2CCCN2C(=O)CNC(=O)[C@H](CCCNC(=N)N)NC(=O)[C@@H]2CSSC[C@H](NC(=O)[C@H](Cc3ccc4ccccc4c3)NC(=O)[C@H](CCCNC(=N)N)NC1=O)C(=O)N[C@@H](Cc1ccc(O)cc1)C(=O)N[C@@H](CCCNC(N)=O)C(=O)N[C@@H](CCCCN)C(=O)N1CCC[C@@H]1C(=O)N1CCC[C@H]1C(=O)N[C@@H](Cc1ccc(O)cc1)C(=O)N[C@@H](CCCNC(=N)N)C(=O)N[C@@H](CCCNC(N)=O)C(=O)N2)CC(C)C
B13: Example 126 (peptide)
peptide: cyclo(YR[Cit]CRG[dP]R[(Pip)G][2Nal]CY[Cit]K[dP]P)
modifications: disulfide 4-11
SMILES: CN1CCN(CCCN2CC(=O)N[C@@H](Cc3ccc4ccccc4c3)C(=O)N[C@H]3CSSC[C@H](NC(=O)[C@H](CCCNC(N)=O)NC(=O)[C@H](CCCNC(=N)N)NC(=O)[C@H](Cc4ccc(O)cc4)NC(=O)[C@@H]4CCCN4C(=O)[C@H]4CCCN4C(=O)[C@H](CCCCN)NC(=O)[C@H](CCCNC(N)=O)NC(=O)[C@H](Cc4ccc(O)cc4)NC3=O)C(=O)N[C@@H](CCCNC(=N)N)C(=O)NCC(=O)N3CCC[C@@H]3C(=O)N[C@@H](CCCNC(=N)N)C2=O)CC1
B14: Example 121 (peptide)
peptide: cyclo(YR[Cit]CRG[dP]RRWCY[Cit]Q[dP]P)
modifications: disulfide 4-11
SMILES: N=C(N)NCCC[C@@H]1NC(=O)[C@@H]2CSSC[C@H](NC(=O)[C@H](Cc3c[nH]c4ccccc34)NC(=O)[C@H](CCCNC(=N)N)NC(=O)[C@H](CCCNC(=N)N)NC(=O)[C@H]3CCCN3C(=O)CNC1=O)C(=O)N[C@@H](Cc1ccc(O)cc1)C(=O)N[C@@H](CCCNC(N)=O)C(=O)N[C@@H](CCC(N)=O)C(=O)N1CCC[C@@H]1C(=O)N1CCC[C@H]1C(=O)N[C@@H](Cc1ccc(O)cc1)C(=O)N[C@@H](CCCNC(=N)N)C(=O)N[C@@H](CCCNC(N)=O)C(=O)N2

biological target: human CXCR4 (human, UniProt P61073 1-352); assay: cell-based or functional assay
Sequence (P61073 whole entry): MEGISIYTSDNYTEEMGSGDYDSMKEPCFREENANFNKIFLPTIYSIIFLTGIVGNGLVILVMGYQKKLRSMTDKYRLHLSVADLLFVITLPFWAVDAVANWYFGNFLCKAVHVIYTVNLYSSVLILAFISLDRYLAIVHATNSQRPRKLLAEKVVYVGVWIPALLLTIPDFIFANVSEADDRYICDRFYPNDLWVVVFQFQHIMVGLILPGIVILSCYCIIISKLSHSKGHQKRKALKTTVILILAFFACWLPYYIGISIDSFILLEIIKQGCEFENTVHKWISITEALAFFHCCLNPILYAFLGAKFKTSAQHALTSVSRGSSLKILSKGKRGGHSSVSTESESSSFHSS

Point of comparison: B5, “IC50 (nM) Ca2+ assay (method 2)” value 330 nM. Against it:
- B1 — 97-fold lower, 3.4 nM
- B3 — 41-fold lower, 8.1 nM
- B4 — 6.3-fold lower, 52.2 nM
- B6 — 33-fold lower, 10 nM
- B7 — 35-fold lower, 9.4 nM
- B8 — 43-fold lower, 7.6 nM
- B9 — 73-fold lower, 4.5 nM
- B10 — 30-fold lower, 10.9 nM
- B11 — 38-fold lower, 8.8 nM
- B12 — 56-fold lower, 5.9 nM
- B13 — 17-fold lower, 19.5 nM
- B14 — 51-fold lower, 6.5 nM

With B2 the “IC50 (nM) Ca2+ assay (method 1)” value was 1550 nM.
